Test results as given in patent US20060188526A1, “Method for enhancing the immune response to Staphylococcus aureus infection” (priority 2005, published 2006).

Legend:
[1] = molecular target: T1, C3b bound to S. aureus surface (Homo sapiens, UniProt P01024); assay: C3-fragments released from C3b-coated S. aureus with factor H, factor I or both (C3 ELISA, Western blot); type: biochemical
T1 construct: purchased Advance Research Technologies, San Diego, Calif
Experimental: Opsonization with purified complement components. Washed bacteria (1×10^9 CFU in GVBS^++ buffer) were incubated with 0.35% IVIg for 30 min. at room temperature in order to sensitize the bacteria for activating the classical complement pathway. Antibody-coated bacteria were then incubated in 60% DGVBS^++ buffer with the purified human complement proteins C1, C4, C2, and C3 to generate the classical complement pathway C3-convertase and bind C3b to the S. aureus surface. Bacteria were incubated with C1 (2 μg/ml) at 30° C. for 15 min., and then with C4 (10 μg/ml) at 37° C. for 45 min. Bacteria were then incubated with C2 (0.5 μg/ml) and C3 (10 μg/ml) together at 30° C. for 30 min. C3b-coated staphylococci were then incubated with factor H (40 μg/ml), factor 1 (4 μg/ml), or both factors for 30 min. at 37° C. […]
(§1) Analysis of surface-bound and released C3-fragments. ELISA was used to quantitate total C3-fragment amount and iC3b amount as follows. […] Plates were washed 3 three times with PBS/Tween buffer and developed with TMB Plus (Accurate Chemical), stopped with 2.5 N H2SO4, and read at 450 nm.
Values for C3-fragments bound and iC3b bound to S. aureus opsonized in serum were calculated subtracting the values obtained with heat inactivated serum from the values obtained with NHS. […] Bound antibody was detected by enhanced chemiluminescence.

[2] = tested on: C3b-coated S. aureus phagocytosis by human polymorphonuclear leukocytes (PMN); assay: Phagocytosis assay, C3b-coated S. aureus (purified complement components) incubated with factor H, factor I or both; type: cell-based; details: compared with untreated C3b-coated S. aureus, factor H 40 μg/ml, factor I 4 μg/ml
Experimental: Bacterial strains and growth. Staphylococcus aureus strain Reynolds, capsule polysaccharide serotype 5, was used in all experiments. This strain has a pattern of C3-fragment deposition similar to other capsule polysaccharide serotype 5 and 8 strains—the serotypes that account for the majority of human S. aureus infections. Mid-logarithmic phase bacteria were grown in Columbia 2% NaCl broth at 37° C. with agitation for 2 hours to an optical densitometry of 0.7 to 1.3 at 600 nm. In midlogarithmic phase growth minimal capsule is expressed by strain Reynolds.
Opsonization with purified complement components. Washed bacteria (1×10^9 CFU in GVBS^++ buffer) were incubated with 0.35% IVIg for 30 min. at room temperature in order to sensitize the bacteria for activating the classical complement pathway. Antibody-coated bacteria were then incubated in 60% DGVBS^++ buffer with the purified human complement proteins C1, C4, C2, and C3 to generate the classical complement pathway C3-convertase and bind C3b to the S. aureus surface. […]
Phagocytosis assay. […] Bacteria and PMN were visualized by fluorescence microscopy using broad wavelength excitation and emission filters that allow visualization at 100× magnification. Microscope slides were blinded to the reader, and 100 neutrophils per slide were counted to determine the percent of PMN phagocytosing bacteria and total number of S. aureus ingested.

[3] = molecular target: T1, C3b bound to S. aureus surface; assay: C3-fragments bound to C3b-coated S. aureus with factor H, factor I or both (ELISA, Western blot); type: biochemical
Experimental: Opsonization with purified complement components. Washed bacteria (1×10^9 CFU in GVBS^++ buffer) were incubated with 0.35% IVIg for 30 min. at room temperature in order to sensitize the bacteria for activating the classical complement pathway. Antibody-coated bacteria were then incubated in 60% DGVBS^++ buffer with the purified human complement proteins C1, C4, C2, and C3 to generate the classical complement pathway C3-convertase and bind C3b to the S. aureus surface. Bacteria were incubated with C1 (2 μg/ml) at 30° C. for 15 min., and then with C4 (10 μg/ml) at 37° C. for 45 min. Bacteria were then incubated with C2 (0.5 μg/ml) and C3 (10 μg/ml) together at 30° C. for 30 min. C3b-coated staphylococci were then incubated with factor H (40 μg/ml), factor 1 (4 μg/ml), or both factors for 30 min. at 37° C. The bacteria pellet was then sedimented and the supernatants recovered to measure C3-fragments released from the bacteria. The bacteria were then washed and treated with 0.05 ml of 25 mM methylamine (Sigma-Aldrich) for 60 min. at 37° C. to recover C3-fragments bound by ester bonds to the S. aureus surface. The stripped bacteria were sedimented and the supernatants containing previously surface bound C3-fragments were recovered for testing by ELISA and Western blot. […]
as §1
Values for C3-fragments bound and iC3b bound to S. aureus opsonized in serum were calculated subtracting the values obtained with heat inactivated serum from the values obtained with NHS. Methylamine supernatants of surface bound C3-fragments were analyzed by Western blot analysis performed with polyclonal goat anti-human C3 antibody (Advanced Research Technologies) and horseradish peroxidase-labeled rabbit anti-goat antibody (Sigma-Aldrich). Bound antibody was detected by enhanced chemiluminescence.

T1 sequence (P01024 749-1663): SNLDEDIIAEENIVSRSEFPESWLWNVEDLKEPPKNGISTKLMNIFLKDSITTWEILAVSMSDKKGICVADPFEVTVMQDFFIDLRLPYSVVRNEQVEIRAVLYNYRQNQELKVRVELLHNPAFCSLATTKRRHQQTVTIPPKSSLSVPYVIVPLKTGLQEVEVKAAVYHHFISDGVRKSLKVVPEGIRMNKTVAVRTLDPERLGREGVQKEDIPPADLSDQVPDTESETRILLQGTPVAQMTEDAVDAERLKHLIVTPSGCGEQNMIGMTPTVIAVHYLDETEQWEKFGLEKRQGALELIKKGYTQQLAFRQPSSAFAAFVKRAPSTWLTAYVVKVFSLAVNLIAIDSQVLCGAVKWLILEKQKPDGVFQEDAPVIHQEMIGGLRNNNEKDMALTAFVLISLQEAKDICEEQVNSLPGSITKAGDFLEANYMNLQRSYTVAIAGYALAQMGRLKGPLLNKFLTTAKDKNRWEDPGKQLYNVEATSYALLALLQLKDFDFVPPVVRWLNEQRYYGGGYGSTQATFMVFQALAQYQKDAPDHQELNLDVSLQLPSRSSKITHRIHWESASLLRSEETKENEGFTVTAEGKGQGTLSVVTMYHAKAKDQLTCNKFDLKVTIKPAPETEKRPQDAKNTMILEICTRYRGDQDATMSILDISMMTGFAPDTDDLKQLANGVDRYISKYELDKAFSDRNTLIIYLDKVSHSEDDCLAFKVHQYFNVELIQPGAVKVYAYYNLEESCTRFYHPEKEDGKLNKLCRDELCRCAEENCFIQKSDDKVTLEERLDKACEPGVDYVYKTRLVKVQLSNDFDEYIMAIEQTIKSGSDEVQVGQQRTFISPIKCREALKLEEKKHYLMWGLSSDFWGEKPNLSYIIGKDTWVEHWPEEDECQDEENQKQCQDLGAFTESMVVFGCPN
T1 sequence (P01024 23-667): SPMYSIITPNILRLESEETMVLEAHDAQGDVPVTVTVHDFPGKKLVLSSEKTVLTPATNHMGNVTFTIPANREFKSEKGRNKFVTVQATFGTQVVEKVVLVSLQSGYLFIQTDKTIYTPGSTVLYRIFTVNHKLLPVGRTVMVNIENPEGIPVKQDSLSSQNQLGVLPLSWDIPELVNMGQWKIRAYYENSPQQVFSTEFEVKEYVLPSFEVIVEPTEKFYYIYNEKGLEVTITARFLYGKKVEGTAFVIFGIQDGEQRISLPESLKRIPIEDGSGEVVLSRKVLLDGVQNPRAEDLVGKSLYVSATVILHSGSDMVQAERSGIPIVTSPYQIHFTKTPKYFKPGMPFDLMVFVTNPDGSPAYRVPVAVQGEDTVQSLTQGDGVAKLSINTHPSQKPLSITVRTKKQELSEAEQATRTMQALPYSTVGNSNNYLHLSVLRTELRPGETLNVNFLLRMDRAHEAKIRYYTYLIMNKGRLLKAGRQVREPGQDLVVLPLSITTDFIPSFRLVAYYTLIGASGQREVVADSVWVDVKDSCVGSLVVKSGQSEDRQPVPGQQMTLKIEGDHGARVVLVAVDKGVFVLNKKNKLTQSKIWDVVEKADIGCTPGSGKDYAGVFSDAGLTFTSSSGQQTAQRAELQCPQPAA

B1: factor I: purified human complement regulatory protein factor I, serum enzyme that cleaves C3b to iC3b (protein, UniProt P05156 19-583, looked up)
Complement factor I: KVTYTSQEDLVEKKCLAKKYTHLSCDKVFCQPWQRCIEGTCVCKLPYQCPKNGTAVCATNRRSFPTYCQQKSLECLHPGTKFLNNGTCTAEGKFSVSLKHGNTDSEGIVEVKLVDQDKTMFICKSSWSMREANVACLDLGFQQGADTQRRFKLSDLSINSTECLHVHCRGLETSLAECTFTKRRTMGYQDFADVVCYTQKADSPMDDFFQCVNGKYISQMKACDGINDCGDQSDELCCKACQGKGFHCKSGVCIPSQYQCNGEVDCITGEDEVGCAGFASVTQEETEILTADMDAERRRIKSLLPKLSCGVKNRMHIRRKRIVGGKRAQLGDLPWQVAIKDASGITCGGIYIGGCWILTAAHCLRASKTHRYQIWTTVVDWIHPDLKRIVIEYVDRIIFHENYNAGTYQNDIALIEMKKDGNKKDCELPRSIPACVPWSPYLFQPNDTCIVSGWGREKDNERVFSLQWGEVKLISNCSKFYGNRFYEKEMECAGTYDGSIDACKGDSGGPLVCMDANNVTYVWGVVSWGENCGKPEFPGVYTKVANYFDWISYHVGRPFISQYNV
- amounts of C3-fragments shed from the S. aureus surface ([1]; C3 ELISA, compared with incubation in buffer alone, FIG. 5A): increased significantly
- form of C3-fragments shed, Western blot with polyclonal anti-C3 antibody ([1]; FIG. 5B): likely iC3b or possibly C3c
- decrease of percent of neutrophils phagocytosing C3b-coated S. aureus ([2]; FIG. 3A): 29%
- decrease of number of C3b-coated S. aureus phagocytosed by 100 neutrophils ([2]; FIG. 3B): 40%
- decrease of amount of total C3-fragments bound to C3b-coated S. aureus ([3]; C3 ELISA, compared to control bacteria (no factor H or I exposure), FIG. 4B): 58%
- types of C3-fragments bound to the S. aureus surface, Western blot ([3]; compared with untreated C3b-coated S. aureus, FIG. 4C): less C3b and more iC3b
- increase of amount of iC3b bound to S. aureus ([3]; iC3b ELISA, compared with untreated C3b-coated bacteria, FIG. 4A): 75%
